From patent US6046165 come the findings set out here.

Data set [1] concerns the target MAD^N (B-Pv) (Drosophila melanogaster) (UniProt P42003). Description: EMSA. For orientation: A gel shift assay detects complexes by their altered migration in electrophoresis.
Data set [2] concerns the target MAD full length (B-H) (Drosophila melanogaster) (UniProt P42003). Description: EMSA. The settings on record: approximately 100-fold lower than MAD^N.

Chain of MAD^N (B-Pv) (Drosophila melanogaster) (P42003 1-241): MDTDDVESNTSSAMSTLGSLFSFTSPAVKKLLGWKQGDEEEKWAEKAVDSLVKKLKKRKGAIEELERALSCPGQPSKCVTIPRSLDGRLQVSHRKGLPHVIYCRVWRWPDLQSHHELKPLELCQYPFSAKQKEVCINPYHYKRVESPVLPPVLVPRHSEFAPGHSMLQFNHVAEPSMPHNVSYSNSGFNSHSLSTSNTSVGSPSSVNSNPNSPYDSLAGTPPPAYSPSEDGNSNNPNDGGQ
Chain of MAD full length (B-H) (Drosophila melanogaster) (P42003 whole entry): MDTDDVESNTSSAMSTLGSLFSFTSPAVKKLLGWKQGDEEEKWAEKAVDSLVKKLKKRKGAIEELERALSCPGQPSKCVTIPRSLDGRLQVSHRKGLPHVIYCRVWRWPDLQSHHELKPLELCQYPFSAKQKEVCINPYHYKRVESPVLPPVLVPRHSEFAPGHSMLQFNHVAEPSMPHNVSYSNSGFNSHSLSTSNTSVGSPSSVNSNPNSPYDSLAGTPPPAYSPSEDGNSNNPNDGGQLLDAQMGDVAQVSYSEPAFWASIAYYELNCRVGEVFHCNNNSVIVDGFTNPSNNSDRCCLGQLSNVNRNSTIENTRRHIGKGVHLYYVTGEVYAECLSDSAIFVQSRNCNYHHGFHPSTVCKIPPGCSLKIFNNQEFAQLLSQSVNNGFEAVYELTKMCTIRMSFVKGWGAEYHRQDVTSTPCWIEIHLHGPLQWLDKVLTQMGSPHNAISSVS

For the sequence “ATTC (double strand) [MAD binding site (FIG. 7B)]”, the binding signal in data set [1] (wild-type reference) was found to be 1 reference.

“ATTC (double strand) [MAD binding site GCT to CGC]”: the binding signal in data set [1] (increased affinity vs wild-type site, MBP fusion) stood at 6 fold vs n15.

In turn, ATTC (double strand) [Vg 20 bp] displayed a binding signal (fraction of MAD^N) in data set [2] of 0.01.
